B1: Zinc finger protein ZIC 2, residues 250 to 295; numbered along this chain, O95409 (parent)
chain: QCIKQELICKWIDPEQLSNPKKSCNKTFSTMHELVTHVSVEHVGGP

Variants of: B1
Experiment: abundance fitness (aPCA) (normalised: wild type 0, dead -1); higher = more abundant; growth selection in yeast, the domain comes from the species named
Conditions: Homo sapiens

Abundance fitness: each site, then its substitutions
T30: V -0.429
T27: D 0.072, L -0.19, V 0.06, R -0.025, N 0.001, A -0.116, G 0.104, M 0.182, Y -0.818, E 0.188, H -0.449, Q 0.119, F 0.174, W -0.296, C -0.17, I 0.381, S -0.001
L34: T -0.696, Y 0.544, D -0.828, H -0.569, S -0.617, M 0.087, N -0.733, G -0.618, P -0.371, E -0.717, C -0.797, V -0.615, Q -0.48, R -0.705, I -0.79, F -0.039, A -0.641, K -0.23, W -0.029
H37: D -0.457, V -0.904, A -0.683, G -0.565, K -0.806, L -0.741, C -1.5, M -0.728, S -0.856, I -1, Y -0.951, E -0.611, R -0.789, Q -0.93, W -0.953, F -1.1, N -0.747, P -0.787, T -0.903
N25: K 0.044, R 0.281, M -0.019, F -0.517, T 0.072, Y -0.33, A 0.507, D -0.047, V -0.302, Q 0.17, H 0.183, L 0.083, P 0.199, W -0.453, I -0.469, G 0.3
V43: W -0.332, Y 0.485, R 0.226, K 0.088, L -0.299, G 0.247, S 0.313, H 0.012, M -0.126, E 0.587, Q 0.116, T 0.108, P 0.129, A 0.052, F 0.063
M31: L -0.377, D 0.334, V -0.363, E 0.373, W -0.602, A 0.12, I 0.318, G 0.079, K 0.518, T 0.042, H 0.436, S 0.321, N 0.622, Q 0.438, P -0.079, C -0.569
E41: P -1.04, C 0.03, V -0.125, K -0.269, R -0.377, D -0.093, W -0.387, G -0.279, T 0.032, F -0.405, A -0.07, L -0.487, N -0.044, S 0.032, Y -0.226, M -0.338, Q 0.084, I -0.216
V38: S 0.202, P -0.417, W 0.82, T 0.052, E 0.518, R 0.607, M 0.278, Y 0.066, N 0.035, Q 0.43, H -0.121, I -0.021, C -0.066, L -0.165, D -0.159, G -0.095, K 0.623, A -0.161, F 0.08
E33: R -0.69, K -0.615, P -0.826, Y -1.01, H -0.434, A -0.342, Q -0.046, N -0.726, D 0.086, V -0.838, C -0.777, I -0.932, W -0.979, M -0.751, F -1.03, L -0.735, S -0.452, G -0.166
C24: Y -0.994, W -0.868, Q -0.764, S -0.766, N -0.798, V -0.86, R -0.841, P -0.889, T -0.8
